The text below walks through data of article PMC11784312 (Journal of Virology, 2024).

Assay [1] addresses T1, hemagglutinin of A/chicken/Guangdong/SD008/2017 (H7N9) (Influenza A virus …, UniProt A0A2D0Z8H0, strain). As to the kind of experiment: ELISA. The note with it: both partners purified. On the technique in general: ELISA stands for enzyme-linked immunosorbent assay.
Assay [2] has as its target SD008 HA expressed from pcDNA 3.1-SD008-HA (Influenza A virus …, UniProt A0A2D0Z8H0, strain). As to the kind of experiment: immunostaining of cells or tissue. Particulars: one partner purified.
The target of assay [3] is T1, hemagglutinin of …. In words: flow cytometry on cells. Particulars: one partner purified. (In general: Flow cytometry measures light scatter and fluorescence of single cells or particles in a stream.)

B1: 2D7 neutralizing antibody (antibody, V domains shown)
VH: VQLQESGPGLVKPSQSLSLTCTVTGYSITSDYTWNWIRQFPGNKLEWMGYISYSGSTSYNPSLKSRMSITRDTSKNQFLLQLNSVTTADTATYYCTRDGPYWHIDVWGAGTTVTVSS
VL: DIQMNQSPSSLSASLGDTITITCHASQTINIWLSWYQLKPGNIPKLLIYKASNLHTGVPSRFSGSGSGTGFTLTISSLQPEDIASYYCQQGQSFPYTFGGGTKLEIK
notes: whole murine IgG
Take B1: the binding result in assay [1] and in assay [2] was “binds” throughout.

B2: 1H9 neutralizing antibody (antibody, V domains shown)
VH: VQLQESGPGLVKPSQSLSLTCTVTGYSITSDYTWNWIRQFPGNKLEWMGYITYSDTTSYNPSLKSRISITRDTSKNQFFLQLNSVTTEDTATYYCARSDGWYGFAYWGQGTLVTVSA
VL: DIQMNQSPSSLSASLGDTITITCHASQNINVWLSWYQQKPGNIPKLLIYKAFDLHTGVPSRFSGSGSGTGFTLTISSLQPEDIATYYCQQGQTYPFTFGGGTKLEIK
notes: also called nAb 1H9; source: mouse hybridoma, ascites of BALB/c mice, purified (protein G agarose)
On to B2, for which the binding result in assay [3] and in assay [2] was “binds” each time.
